This is an account of results in the nanobody polyreactivity screen of Harvey et al. (2022).

The data set is described as follows: yeast display, Sf9 membrane polyspecificity reagent, FACS + sequencing; frameworks hold sequencing errors. In outline:
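Nanobodies from a synthetic yeast display library (Saccharomyces cerevisiae BJ5465), induced 36–48 hours with galactose, were stained 1 hour at 4 °C with 10% biotinylated, detergent-solubilized Sf9 membrane reagent, enriched on streptavidin microbeads, then FACS-sorted. Anti-HA (expression) and streptavidin (reagent binding) fluorescence set low and high (top ~1%) gates. Polyreactivity labels come from the gate of origin. Genes were colony-PCR amplified, MiSeq 2 × 250 sequenced and filtered by CDR length.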
For the sequence “QVQLVESGGGLVQAGGSLRLSCAASGIIFWGNAMGWYRQAPGKERELVATITGRGGSTYYADSVKGRFTISRDNAKNTVYLQMNSLKPEDTAVYYCAASGGRPIFFYDVWGGIVRHDYWGQGTQVTVSS”, the “polyreactivity (PSR sort gate)” value is recorded as “low polyreactivity”.
With “QVQLVESGGGLVQAGGSLRLSCAASGIIFWHYAMGWYRQAPGKERELVAAISSRGGYTYYADSVKGRFTISRDNAKNTVSLQMNSLKPEDTAVYYCNAGYYTHRYRFLVQGDYWGQGTQVTVSS”, the “polyreactivity (PSR sort gate)” value was “high polyreactivity”.
The result for “QVQLVESGGGLVQAGGSLRLSCAASGIIFWRYAMGWYRQAPGKERELVAAISRRGGSTYYADSVKGRFTISRDNAKITVYLQMNSLKPEDTAVYYCAVLDWTLHYRSDYWGQGTQVTVSS” reads “high polyreactivity”; that for “QVQLVESGGGLVQAGGSLRLSCAASGIIFYDYAMGWSRQAPGKERELVATITRGGGTKYADSVKGRFTISRDNAKNTVYLQMNSLKPEDTAVYYCAADSHGVYEGDYWGQGTQVTVSS”, “low polyreactivity”.
The same measure for “QVQLVESGGGLVQAGGSLRLSCAASGIIFYDYAMGWYRPAPGKERELVAAINYSGGSTYYADSVKGRFTISRDNAKNTVYLQMNSLKPEDTAVYYCAADNAVWEYDYWGQGTQVTVSS”: “low polyreactivity”; for “QVQLVESGGGLVQAGGSLRLSCAASGIIFYDYAMVWYRQAPGKERELVAAISWGGGSTSYADSVKGRFTISRDNAKNTVYLQMNSLKPEDTAVYYCNKVSLSKRRDYYWGQGTQVTVSS”: “high polyreactivity”; for “QVQLVESGGGLVQAGGSLRLSCAASGIIFYEFTMGWYRQAPGKERELVATISWSGGSTYYADSVKGRFTISRDNAKNTVYLQMNSLQPEDTAVYYCAADFADVQSISPDSAHEYDYWGQGTQVTVSS”: “low polyreactivity”.
The same measure for “QVQLVESGGGLVQAGGSLRLSCAASGIIFYFYAMGWDSQAPGKERELVAAISGTGGRTYYADSVKGRFTISRDNAKNTVYLQMNSLKPEDTAVYYCAADRGGLRWFWQVLYDYWGQGTQVTESS”: “low polyreactivity”.
For “QVQLVESGGGLVQAGGSLRLSCAASGIIFYFYAMGWYRQAPGKERELVAAISRGGSTKYADSVKGRFTISRDNAKNTVYLQMNSLKPEDTAVYYCAATRRRPSEYYYWGQGTQVTVSS”, the “polyreactivity (PSR sort gate)” value is given as “high polyreactivity”.
The result for “QVQLVESGGGLVQAGGSLRLSCAASGIIFYGYAMGWYRQAPGKERELVAGISSGGSTYYADSVKGRFTISRDNAKNTVYLQMNSLKPEDTAVYYCNADGGYSYESTDHYGYDYWGQGTQVTVSS” reads “low polyreactivity”; that for “QVQLVESGGGLVQAGGSLRLSCAASGIIFYGYAMGWYRQATGKERELVAAISSGGGTNYADSVKGRFTISRDNAKNTVYLQMNSLKPEDTAVYYCAARQYRYYYWGQGTQVTVSS”, “high polyreactivity”.
The result for “QVQLVESGGGLVQAGGSLRLSCAASGIIFYKYAMGSYRQSPWKERELVAVISRGGGSTYYADSVKGRFTISRDNAKNTVYLQMNSLKPEDTAVYYFAADPRVTRSYTYDYWGQGTQVTVSS” reads “high polyreactivity”.
Regarding “QVQLVESGGGLVQAGGSLRLSCAASGIIFYLYAMGWYRQAPGKERELVAAISWRGGSTYYADSVKGRFTISRDNAKNTVYLQMNSLKPEDTAVYYCNKTQPIDLYGYWGQGTQVTVSS”, the “polyreactivity (PSR sort gate)” value is “high polyreactivity”.
The result for “QVQLVESGGGLVQAGGSLRLSCAASGIIFYLYTMGWYRQAPGKERELVAAITRGGSTYYADSVKGRFTISRDNAKNTVYLQMNSLKPEDTSVYYCAAKHGPGYRRWYDYWGQGTQVTVSS” reads “high polyreactivity”; that for “QVQLVESGGGLVQAGGSLRLSCAASGIIFYPYAMGVYRKAPGKEREMVADITSGGGTNYADSVKGRFTISRDYAKNTVYLKMNSLKPEDTAVYYCAAEVRGYHWGTYYEFYYWGQGTQVTVSS”, “low polyreactivity”.
Consider “QVQLVESGGGLVQAGGSLRLSCAASGIIFYPYAMGWYRQAPGKERELVAAISIGGGSTYYADSVKGRFTISRDNAKNTVYLQMNSLKPEDTAVYYCAAGTPYGILGYYYWGQGTQVTVSS”, for which the “polyreactivity (PSR sort gate)” value is listed as “low polyreactivity”.
The same measure for “QVQLVESGGGLVQAGGSLRLSCAASGIIFYQNTMGWYRQAPGKERELVATITKRGGSTYYADSVKGRFTISRDNAKNTVYLQMNSLKPEDTAVYYCNAAKYAASYIGYGYWGQGTQVTVSS”: “high polyreactivity”; for “QVQLVESGGGLVQAGGSLRLSCAASGIIFYRYAMGWYRQAPGKERELVAAISGSGGRTYYADSVKGRFTISRDNAKNTVYLQMNSLKPEDTAVYYCARVYDIYHYFYAYGGDYWGQGTQVTVSS”: “high polyreactivity”.
The same measure for “QVQLVESGGGLVQAGGSLRLSCAASGIIFYRYAMGWYRQAPGKERELVAAISSSGGSTYYADSVKGRFTISRDNAKNTVYLQMNSLKPEDTAVYYCARVTTVYDGRGFVDVKRGYWGQGTQVTVSS”: “high polyreactivity”; for “QVQLVESGGGLVQAGGSLRLSCAASGIIFYTNAMGWYRQAPGKEREFVAAINTSGGITYYADSVKGRFTISRDNAKNTVYLQMNSLKPEDTAVYYCAADQTYERHWVYYWGQGTQVTVSS”: “low polyreactivity”.
The same measure for “QVQLVESGGGLVQAGGSLRLSCAASGIIFYVYAMGWYRQAPGKERELVAAISSGGRTNYADSVKGRFTISRDNAKNTVYLQMNSLKPEDTAVYYCAAKSVRRRLGYWGQGTQVTVSS”: “high polyreactivity”.
As to “QVQLVESGGGLVQAGGSLRLSCAASGIIFYVYAMGWYRQAPGKERELVAAISSTSSTYADSVKGRFTISRDNAKNTVYLQMNSLKPEDTAVFYCNTDYSDGYPAFDYWGQGTQVTVSS”, the “polyreactivity (PSR sort gate)” value is on record as “low polyreactivity”.
The same measure for “QVQLVESGGGLVQAGGSLRLSCAASGIIFYWNAMGWYRQAPGQEREFDASISGSGGSTYADSVKGRFTISRDNAMNTVYFQMKSLKPEDTAVYYCAVLYWRPGYDYLGQGTQVTVSS”: “high polyreactivity”; for “QVQLVESGGGLVQAGGSLRLSCAASGIIFYWYAMGWYRQAPGKERELVAAISASGASTYYADSVKGRFTISRDNAKNTVYLQMNSLKPEDTAVYYCAAEHPWSRYDYWGQGTQVTVSS”: “high polyreactivity”; for “QVQLVESGGGLVQAGGSLRLSCAASGIIFYYAMGWYRQAPGKERELVASIRWSGDSTYYADSVKGRFTISRDNAKNTVYLQMNSLKPEDTAVYYCAAEPDSAVSYVSWRDYWGQGTQVTVSS”: “low polyreactivity”.
The result for “QVQLVESGGGLVQAGGSLRLSCAASGIIFYYNAMGWYRQAPGKERELVAAIDDRGDSTYYADSVKGRFTISRDNAKNTVYLEMNSLKPEDTAVYYCATDGHYLYSWYKYDYWGQGTQVTVSS” reads “low polyreactivity”.
The result for “QVQLVESGGGLVQAGGSLRLSCAASGIIFYYNAMGWYRQAPGKERELVAAIDDRGDSTYYADSVKGRFTISRDNAKNTVYLQMNSLKPEDTAVYYCAARDRYLYFDAMDYWGQGTLVTVSS” reads “low polyreactivity”.
Regarding “QVQLVESGGGLVQAGGSLRLSCAASGIIFYYYAMGWYRQAPGKERELVAAISRSGGITYYPDSVKGRFTISRDNAKNTEYFQMNSLKAEDTAVYYGNALRLVYYHPEDDYWGQGPQVTVSS”, the “polyreactivity (PSR sort gate)” value is on record as “high polyreactivity”.
The same measure for “QVQLVESGGGLVQAGGSLRLSCAASGIIFYYYGMGWSRQAPGKEREFVAAISTSGGNTYYADSVKGRFTISRDNAKNTVYLQMNSLKPEDTAVYYCAADDWPWGDAGVDYWGQGTQVTVSS”: “low polyreactivity”; for “QVQLVESGGGLVQAGGSLRLSCAASGIIIGGNAMGWYRQARGKERELVAAINSDDSTYYADSVKGRFTISRDNAKNTVYLQMNSLKPEDTAVYYCAVTETYYSPYSGYWYEYDHWGQGTQVTVSS”: “high polyreactivity”; for “QVQLVESGGGLVQAGGSLRLSCAASGIIILWNAMGWDRQAPGKERELVATISWTDGSTSYADSVKGRFTISRDNAKNTVYLQMNSLKPEDTAVYYCNVRHKSYRKSDYWGQGTQVTVSS”: “low polyreactivity”.
The result for “QVQLVESGGGLVQAGGSLRLSCAASGIIIPYYAMGWYRQAPGKERELVAAISSGGSTNYADSVKGRFTISRDNAKNTVYLQMNSLKPEDTAVYYCAAKYTSYASWPIWVVDQFDYWGQGTQVTVSS” reads “low polyreactivity”; that for “QVQLVESGGGLVQAGGSLRLSCAASGIIIRGYAMGLYRQAPGKERELVAGITSGGRTYYADSVKGRFTISRDNAKNTVYLQMNSLKPEDTAVYYCNADAYGDDWKIYDYWGQVTQVTVSS”, “low polyreactivity”; that for “QVQLVESGGGLVQAGGSLRLSCAASGIIIVRYAMGWYRQAPGKERELVAAISWSGGRTYYADSVKGRFTISRDNAKNTVYFQINSLKPEDTAVYYCAAAPLYYHRRGYYYWGQGTQVTVSS”, “high polyreactivity”.
The same measure for “QVQLVESGGGLVQAGGSLRLSCAASGIILAYYAMRWYRQAPGKERELVASINRSGGSTYYADSVKGRFTISRDNAKNTVYFQMNSMKPEDTAVYYCDATTRGVGQWWYRYYYWGQGTQVTVSS”: “high polyreactivity”; for “QVQLVESGGGLVQAGGSLRLSCAASGIILDPNAMGGYRQAPGKERELVAGITRSGVSTYYADSVKGRFTISRDNAKNTVYLQMKSLKPEDTAVYYCAKDRIYGSKGEDDDYWGQGTQVTVSS”: “low polyreactivity”; for “QVQLVESGGGLVQAGGSLRLSCAASGIILGSYVMGWYRQAPGKERELVAVISFSGGSTYSADSVKGRFTISRDNAKNTVYLQMNSLKPEDTAVYYCAADNFRSYTIRSPYNYWGQGTQVTVSS”: “low polyreactivity”.
Turning to “QVQLVESGGGLVQAGGSLRLSCAASGIILGYYAMGWYRQAPGKERELVAAINWSGASTYYADSVKGRFTISRDNAKNTVYLQMNSLKPEDTAVYYCARRAYGTRVLFDYWGQGTQVTVSS”, the “polyreactivity (PSR sort gate)” value was “high polyreactivity”.
The same measure for “QVQLVESGGGLVQAGGSLRLSCAASGIILHYYAMGSYRQAPGKERELVAAISARGGRTYYADSVKGRFTISRDNAKNTVYLQMNSLKPEDTAVYYCARYLRRSSPSPGYGYWGQGTQVTVSS”: “high polyreactivity”; for “QVQLVESGGGLVQAGGSLRLSCAASGIILHYYTMGWYRQAPGKERELVAAITFSGGGTYYADSVKGRFTISRDNAKNTVYLQMNSLKPEDTAVYYCAAPWRYYGHDYWGQGTQVTVSS”: “low polyreactivity”.
